Assays:
human TROP2-his protein [1] = biological target: T1, human TROP2-his protein (human, UniProt P09758 27-274); assay: epitope grouping ELISA, 15 ug/ml antibody premixed with biotin human TROP2-his; competitor: coated BM2
T1 construct: Biotin-labelled in the ELISAs, unlabelled analyte in Biacore; also called biotin-labeled human TROP2-his protein; biotin human Trop2-his
T1 sequence: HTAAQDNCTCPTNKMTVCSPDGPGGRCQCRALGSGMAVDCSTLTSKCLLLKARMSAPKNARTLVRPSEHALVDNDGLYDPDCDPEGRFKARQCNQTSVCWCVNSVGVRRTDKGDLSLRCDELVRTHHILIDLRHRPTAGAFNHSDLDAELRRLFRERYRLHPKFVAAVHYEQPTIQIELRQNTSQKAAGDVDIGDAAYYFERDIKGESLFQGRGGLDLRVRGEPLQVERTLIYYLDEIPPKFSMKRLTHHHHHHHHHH
Experimental: (§1) Firstly, capture ELISA was performed to determine the concentration of biotin-labeled human Trop2 proteins appropriate for the epitope binning test. […] The plates were washed for 4 times, added with 100 μl/well of serially diluted biotin human Trop2-his proteins (SEQ ID NO: 67) in PBST with 2.5% non-fatty milk (starting from 1.3 μg/ml with a 5-fold serial dilution), and incubated for 40 min at 37° C. Then the plates were washed for 4 times and added with 100 μl/vell of HRP-streptavidin (Jackson Immuno Research, Cat #016-030-084). The plates were incubated for another 40 min at 37° C. Then the plates were washed again, and 100 μl/well TMB was added for color development at RT for 15 min followed by quenching with 50 μl 1M H₂SO₄. The OD values at 450 nm were read.
(§2) With the appropriate concentration determined above, epitope grouping ELISA was performed. […] ELISA plates were washed once with wash buffer (PBS+0.05% v/v Tween-20, PBST) and then blocked with 200 μl blocking buffer (5% w/w non-fatty milk in PBST) for 2 hours at 37° C. […] The mixtures were incubated at room temperature for 40 minutes. After plate washing for 4 times, the antibody/biotin-TROP2-his protein mixtures were added to the antibody coated plates, 100 μl per well, and incubated for another 40 min at 37° C. Then 100 μl/well of HRP-streptavidin was added and incubated for 40 min. Then OD₄₅₀ values were determined and the cross-competition capability was calculated (cross-competition capability of antibody X (%)=(OD₄₅₀ of Antibody X-[…] of Blank)/(OD₄₅₀ of no mAb-OD₄₃₀ of Blank)*100%).

human TROP2-his protein [2] = biological target: T1, human TROP2-his protein; assay: epitope grouping ELISA, 15 ug/ml antibody premixed with biotin human TROP2-his; competitor: coated BM1
Experimental: as §1, §2

human TROP2-his protein [3] = biological target: T1, human TROP2-his protein; assay: SPR Biacore, human TROP2-his analyte
human TROP2-his protein [4] = biological target: T1, human TROP2-his protein; assay: epitope grouping ELISA, 15 ug/ml antibody premixed with biotin human TROP2-his; competitor: coated huA1E4F7D4-V16
Experimental: as §1, §2

[5] = biological target: T2, full length human TROP2 on 293F-TROP2 cells (human, UniProt P09758 27-323); assay: FACS on 293F-TROP2 cells, MFI
T2 construct: also called 293F-TROP2 cells (clone ID #3A8); cell surface TROP2
T2 sequence: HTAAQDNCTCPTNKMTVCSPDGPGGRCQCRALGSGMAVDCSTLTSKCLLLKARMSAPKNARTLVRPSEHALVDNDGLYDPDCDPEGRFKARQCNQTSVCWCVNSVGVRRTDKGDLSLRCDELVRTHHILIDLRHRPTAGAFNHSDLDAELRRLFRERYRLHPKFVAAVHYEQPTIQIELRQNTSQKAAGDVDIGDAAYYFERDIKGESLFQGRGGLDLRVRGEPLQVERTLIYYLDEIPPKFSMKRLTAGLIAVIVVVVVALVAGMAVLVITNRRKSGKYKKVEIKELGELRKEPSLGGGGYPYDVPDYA

B1: BM2 (in house made analog of Datopotamab) (antibody, human IgG1, kappa, V domains shown)
VH: QVQLVQSGAEVKKPGASVKVSCKASGYTFTTAGMQWVRQAPGQGLEWMGWINTHSGVPKYAEDFKGRVTISADTSTSTAYLQLSSLKSEDTAVYYCARSGFGSSYWYFDVWGQGTLVTVSS
VL: DIQMTQSPSSLSASVGDRVTITCKASQDVSTAVAWYQQKPGKAPKLLIYSASYRYTGVPSRFSGSGSGTDFTLTISSLQPEDFAVYYCQQHYITPLTFGQGTKLEIKR
Work on B1 yielded an OD450 (human TROP2-his protein [1]) of 0.354 OD450, an OD450 (human TROP2-his protein [2]) of 0.519 OD450 and a Kd (human TROP2-his protein [3]) of 28.7 nM. The koff (human TROP2-his protein [3]) was 0.00364 s⁻¹, the kon (human TROP2-his protein [3]) was 127000 M⁻¹ s⁻¹ and the OD450 (human TROP2-his protein [4]) was 1.63 OD450. It also gave an EC50 [5] of 0.908 nM.
